The record followed here is patent US20250003951A1 (OXFORD UNIVERSITY INNOVATION, published 2025).

Assay in all cases: cell-based or functional assay
For one test, the target named is T1, OX802-321 (human).
T1 peptide: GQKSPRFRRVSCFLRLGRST

The next test deals with T2, OX802-322 (human).
T2 peptide: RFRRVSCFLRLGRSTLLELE

The target in a further test is T3, OX289-221 (human).
T3 peptide: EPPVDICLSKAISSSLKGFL

In a further test the target is T4, OX628-308 (human).
T4 peptide: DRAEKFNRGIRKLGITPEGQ

The target in a further test is T5, OX628-309 (human).
T5 peptide: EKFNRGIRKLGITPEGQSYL

Another test concerns the target T6, OX289-009 (human).
T6 peptide: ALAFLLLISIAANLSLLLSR

The next test has as its target T7, OX289-040 (human).
T7 peptide: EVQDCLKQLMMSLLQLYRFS

The target in another test is T8, OX885-559 (human).
T8 peptide: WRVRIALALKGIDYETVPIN

The target in a further test is T9, OX885-560 (human).
T9 peptide: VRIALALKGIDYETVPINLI

The target in a further test is T10, OX289-284 (human).
T10 peptide: GETGMFSLSTIRGHQYATY

For another test, the target named is T11, OX289-067 (human).
T11 peptide: VATFPVYTMVAIPIVCKD

B1: OX802 Peptides 321/322 clone 1 TCR (TCR)
TCR alpha 1: AGQSLEQPSEVTAVEGAIVQINCTYQTSGFYGLSWYQQHDGGAPTFLSYNALDGLEETGRFSSFLSRSDSYGYLLLQELQMKDSASYFCAVLKKGYALNFGKGTSLLVTPHIQNPDPAVYQLRD
TCR alpha 2: KDQVFQPSTVASSEGAVVEIFCNHSVSNAYNFFWYLHFPGCAPRLLVKGSKPSQQGRYNMTYERFSSSLLILQVREADAAVYYCAVAGGYNKLIFGAGTRLAVHPYIQNPDPAVYQLRD
TCR beta: EAGVVQSPRYKIIEKKQPVAFWCNPISGHNTLYWYLQNLGQGPELLIRYENEEAVDDSQLPKDRFSAERLKGVDSTLKIQPAELGDSAVYLCASSLEAGDSYEQYFGPGTRLTVTEDLKNVFPPEVAVFEPS
Consider B1, for which the “Clone size (percent repertoire), IFNγ+ sorted T cells after peptide stimulation” value (“Clone size (percent repertoire)” below) with OX802-321 and with OX802-322 was 47.4 % of repertoire each time.

B2: OX289 Peptide 221 clone 2 TCR (TCR, V domains shown)
V domain 1: GDAKTTQPNSMESNEEEPVHLPCNHSTISGTDYIHWYRQLPSQGPEYVIHGLTSNVNNRMASLAIAEDRKSSTLILHRATLRDAAVYYCILRDVGGSEKLVFGKGTKLTVNP
V domain 2: AVVSQHPSWVICKSGTSVKIECRSLDFQATTMFWYRQFPKQSLMLMATSNEGSKATYEQGVEKDKFLINHASLTLSTLTVTSAHPEDSSFYICSAKGLENQPQHFGDGTRLSILE
As for B2, in the test with OX289-221, the “Clone size (percent repertoire)” value is 10.9 % of repertoire.

B3: OX885 Peptides OX628-308/309 clone 1 TCR (TCR, V domains shown)
V domain 1: KTTQPPSMDCAEGRAANLPCNHSTISGNEYVYWYRQIHSQGPQYIIHGLKNNETNEMASLIITEDRKSSTLILPHATLRDTAVYYCIVRVAVTNAGKSTFGDGTTLTVKP
V domain 2: EAQVTQNPRYLITVTGKKLTVTCSQNMNHEYMSWYRQDPGLGLRQIYYSMNVEVTDKGDVPEGYKVSRKEKRNFPLILESPSPNQTSLYFCASRYYSADTQYFGPGTRLTVLE
As for B3, the “Clone size (percent repertoire)” value with OX628-308 and in the test with OX628-309 was 76.1 % of repertoire each time.

B4: OX289 Peptide 9 clone 1 TCR (TCR, V domains shown)
V domain 1: RKEVEQDPGPFNVPEGATVAFNCTYSNSASQSFFWYRQDCRKEPKLLMSVYSSGNEDGRFTAQLNRASQYISLLIRDSKLSDSATYLCVVDFYTSGTYKYIFGTGTRLKVLA
V domain 2: GAVVSQHPSRVICKSGTSVKIECRSLDFQATTMFWYRQFPKQSLMLMATSNEGSKATYEQGVEKDKFLINHASLTLSTLTVTSAHPEDSSFYICSARDREAAGYGYTFGSGTRLTVVE
Turning to B4, the “Clone size (percent repertoire)” value with OX289-009 was 91.1 % of repertoire.

B5: OX289 Peptide 40 clone 1 TCR (TCR, V domains shown)
V domain 1: NSVTQMEGPVTLSEEAFLTINCTYTATGYPSLFWYVQYPGEGLQLLLKATKADDKGSNKGFEATYRKETTSFHLEKGSVQVSDSAVYFCALIPTGGGNKLTFGTGTQLKVEL
V domain 2: AVVSQHPSWVICKSGTSVKIECRSLDFQATTMFWYRQFPKQSLMLMATSNEGSKATYEQGVEKDKFLINHASLTLSTLTVTSAHPEDSSFYICSARLAHSGTNTGELFFGEGSRLTVLE
On to B5, for which the “Clone size (percent repertoire)” value in the test with OX289-040 was 85.2 % of repertoire.

B6: OX885 Peptides 559/560 clone 1 TCR (TCR, V domains shown)
V domain 1: GIQVEQSPPDLILQEGANSTLRCNFSDSVNNLQWFHQNPWGQLINLFYIPSGTKQNGRLSATTVATERYSLLYISSSQTTDSGVYFCAARRVDNNNDMRFGAGTRLTVKP
V domain 2: DARVTQTPRHKVTEMGQEVTMRCQPILGHNTVFWYRQTMMQGLELLAYFRNRAPLDDSGMPKDRFSAEMPDATLATLKIQPSEPRDSAVYFCASGLAQPQHFGDGTRLSILE
As for B6, the “Clone size (percent repertoire)” value with OX885-559 and in the test with OX885-560 was 96.5 % of repertoire throughout.

B7: OX289 Peptide 284 clone 1 TCR (TCR)
TCR alpha: RKEVEQDPGPFNVPEGATVAFNCTYSNSASQSFFWYRQDCRKEPKLLMSVYSSGNEDGRFTAQLNRASQYISLLIRDSKLSDSATYLCVVNKATSGTYKYIFGTGTRLKVLANIQNPDPAVYQLRD
TCR beta 1: AVVSQHPSWVICKSGTSVKIECRSLDFQATTMFWYRQFPKQSLMLMATSNEGSKATYEQGVEKDKFLINHASLTLSTLTVTSAHPEDSSFYICSARDREAAGYGYTFGSGTRLTVVEDLNKVFPPEVAVFEPS
TCR beta 2: AVVSQHPSWVICKSGTSVKIECRSLDFQATTMFWYRQFPKQSLMLMATSNEGSKATYEQGVEKDKFLINHASLTLSTLTVTSAHPEDSSFYICSARLAHSGTNTGELFFGEGSRLTVLEDLKNVFPPEVAVFEPS
On to B7, for which the “Clone size (percent repertoire)” value with OX289-284 was 96 % of repertoire.

B8: OX885 Peptides OX628-308/309 clone 2 TCR (TCR, V domains shown)
V domain 1: AQSVTQLDSQVPVFEEAPVELRCNYSSSVSVYLFWYVQYPNQGLQLLLKYLSGSTLVKGINGFEAEFNKSQTSFHLRKPSVHISDTAEYFCAVSGVLTGGGNKLTFGTGTQLKVEL
V domain 2: DAGITQSPRYKITETGRQVTLMCHQTWSHSYMFWYRQDLGHGLRLIYYSAAADITDKGEVPDGYVVSRSKTENFPLTLESATRSQTSVYFCASSEGTVSNQPQHFGDGTRLSILE
On to B8, for which the “Clone size (percent repertoire)” value in the test with OX628-308 and with OX628-309 was 16.2 % of repertoire each time.

B9: OX289 Peptide 67 clone 1 TCR (TCR)
TCR alpha 1: QLLEQSPQFLSIQEGENLTVYCNSSSVFSSLQWYRQEPGEGPVLLVTVVTGGEVKKLKRLTFQFGDARKDSSLHITAAQPGDTGLYLCAGLDDKIIFGKGTRLHILPNIQNPDPAVYQLRD
TCR alpha 2: GIQVEQSPPDLILQEGANSTLRCNFSDSVNNLQWFHQNPWGQLINLFYIPSGTKQNGRLSATTVATERYSLLYISSSQTTDSGVYFCAVAGSNYQLIWGAGTKLIIKPDIQNPDPAVYQLRD
TCR beta: EAGVAQSPRYKIIEKRQSVAFWCNPISGHATLYWYQQILGQGPKLLIQFQNNGVVDDSQLPKDRFSAERLKGVDSTLKIQPAKLEDSAVYLCASSDPISGRGDEQFFGPGTRLTVLEDLKNVFPPEVAVFEPS
As to B9, in the test with OX289-067, the “Clone size (percent repertoire)” value is 81.1 % of repertoire.

B10: OX802 Peptides 321/322 clone 2 TCR (TCR, V domains shown)
V domain 1: KDQVFQPSTVASSEGAVVEIFCNHSVSNAYNFFWYLHFPGCAPRLLVKGSKPSQQGRYNMTYERFSSSLLILQVREADAAVYYCAVTGGYNKLIFGAGTRLAVHP
V domain 2: EAGVVQSPRYKIIEKKQPVAFWCNPISGHNTLYWYLQNLGQGPELLIRYENEEAVDDSQLPKDRFSAERLKGVDSTLKIQPAELGDSAVYLCASSLEAGDSYEQYFGPGTRLTVTE
B10: the “Clone size (percent repertoire)” value with OX802-321 and with OX802-322 was 20 % of repertoire in each case.
